From the Immune Epitope Database (IEDB)
Each block holds one sequence with its values, some of them ahead of it.

Tests used:
Test in all cases: IEDB peptide-MHC binding, purified MHC/competitive/fluorescence; filed as Kd, often an IC50 or EC50 that approximates it; ≥ and ≤ were set here for values at or beyond the usual limits of such assays
HLA-A*02:01 = target: HLA-A*02:01
HLA-A*02:11 = settings: source organism: Escherichia coli O157:H7 str. Sakai
HLA-A*29:02 = target: HLA-A*29:02
HLA-B*51:01 = target: HLA-B*51:01
HLA-A*68:02 = target: HLA-A*68:02
HLA-A*02:19 = target: HLA-A*02:19
HLA-A*02:03 = settings: source organism: Escherichia coli O157:H7 str. Sakai
HLA-A*80:01 = settings: source organism: Escherichia coli O157:H7 str. Sakai
HLA-A*69:01 = settings: source organism: Escherichia coli O157:H7 str. Sakai
HLA-A*02:12 = settings: source organism: Escherichia coli O157:H7 str. Sakai
HLA-B*39:01 = target: HLA-B*39:01
HLA-A*24:03 = target: HLA-A*24:03
HLA-A*02:16 = settings: source organism: Escherichia coli O157:H7 str. Sakai
HLA-B*46:01 = target: HLA-B*46:01
HLA-A*26:01 = target: HLA-A*26:01
HLA-B*57:01 = target: HLA-B*57:01
HLA-A*23:01 = target: HLA-A*23:01
HLA-A*66:01 = settings: source organism: Entamoeba histolytica HM-1:IMSS
HLA-B*53:01 = settings: source organism: Entamoeba histolytica HM-1:IMSS
HLA-B*27:03 = settings: source organism: Entamoeba histolytica HM-1:IMSS
HLA-B*15:17 = settings: source organism: Entamoeba histolytica HM-1:IMSS
HLA-B*58:01 = settings: source organism: Entamoeba histolytica HM-1:IMSS
HLA-A*11:01 = settings: source organism: Entamoeba histolytica HM-1:IMSS
HLA-B*08:01 = settings: source organism: Entamoeba histolytica HM-1:IMSS
HLA-B*15:01 = settings: source organism: Entamoeba histolytica HM-1:IMSS
HLA-B*40:01 = settings: source organism: Entamoeba histolytica HM-1:IMSS
HLA-A*30:01 = settings: source organism: Entamoeba histolytica HM-1:IMSS
HLA-B*14:02 = settings: source organism: Entamoeba histolytica HM-1:IMSS
HLA-B*18:01 = settings: source organism: Entamoeba histolytica HM-1:IMSS
HLA-A*30:02 = settings: source organism: Entamoeba histolytica HM-1:IMSS
HLA-A*01:01 = settings: source organism: Entamoeba histolytica HM-1:IMSS
HLA-A*03:01 = settings: source organism: Entamoeba histolytica HM-1:IMSS
HLA-B*27:05 = settings: source organism: Entamoeba histolytica HM-1:IMSS
HLA-B*44:02 = settings: source organism: Entamoeba histolytica HM-1:IMSS
[1] = source organism: Escherichia coli O157:H7 str. Sakai
[2] = source organism: Entamoeba histolytica HM-1:IMSS

- Kd (HLA-A*02:01; [1]): ≥ 20 µM
- Kd (HLA-A*02:11): ≥ 20 µM
- Kd (HLA-A*29:02; [1]): 0.0016 µM
- Kd (HLA-B*51:01; [1]): ≥ 20 µM
- Kd (HLA-A*68:02; [1]): ≥ 20 µM
- Kd (HLA-A*02:19; [1]): ≥ 20 µM
- Kd (HLA-A*02:03): ≥ 20 µM
- Kd (HLA-A*80:01): 0.0072 µM
- Kd (HLA-A*69:01): ≥ 20 µM
- Kd (HLA-A*02:12): ≥ 20 µM
- Kd (HLA-B*39:01; [1]): ≥ 20 µM
- Kd (HLA-A*24:03; [1]): ≥ 20 µM
- Kd (HLA-A*02:16): ≥ 20 µM
- Kd (HLA-B*46:01; [1]): ≥ 20 µM
- Kd (HLA-A*26:01; [1]): ≥ 20 µM
- Kd (HLA-B*57:01; [1]): ≥ 20 µM
- Kd (HLA-A*23:01; [1]): ≥ 20 µM
Sequence: HQIWLALRY

Sequence: NPAACSYMV
- Kd (HLA-A*02:01; [2]): ≥ 20 µM
- Kd (HLA-A*66:01): ≥ 5 µM
- Kd (HLA-A*29:02; [2]): 0.122 µM
- Kd (HLA-B*51:01; [2]): ≥ 20 µM
- Kd (HLA-A*68:02; [2]): 0.0283 µM
- Kd (HLA-B*53:01): ≥ 5 µM
- Kd (HLA-B*27:03): ≥ 20 µM
- Kd (HLA-A*02:19; [2]): ≥ 20 µM
- Kd (HLA-B*15:17): ≥ 20 µM
- Kd (HLA-B*58:01): ≥ 5 µM
- Kd (HLA-A*11:01): ≥ 5 µM
- Kd (HLA-B*08:01): ≥ 5 µM
- Kd (HLA-B*15:01): ≥ 20 µM
- Kd (HLA-B*39:01; [2]): 0.232 µM
- Kd (HLA-A*24:03; [2]): ≥ 20 µM
- Kd (HLA-B*40:01): ≥ 5 µM
- Kd (HLA-A*30:01): ≥ 5 µM
- Kd (HLA-B*14:02): ≥ 5 µM
- Kd (HLA-B*18:01): ≥ 20 µM
- Kd (HLA-B*46:01; [2]): ≥ 20 µM
- Kd (HLA-A*26:01; [2]): ≥ 20 µM
- Kd (HLA-A*30:02): ≥ 5 µM
- Kd (HLA-A*01:01): ≥ 5 µM
- Kd (HLA-A*03:01): ≥ 20 µM
- Kd (HLA-B*57:01; [2]): ≥ 20 µM
- Kd (HLA-A*23:01; [2]): ≥ 20 µM
- Kd (HLA-B*27:05): ≥ 5 µM
- Kd (HLA-B*44:02): ≥ 5 µM
